Tested on: T1, promolecule containing protonectin (portion A), PR linker (X2) and PAR-1 exosite recognition sequence (portion Z), Cy3 on an N-terminal lysine
T1 sequence: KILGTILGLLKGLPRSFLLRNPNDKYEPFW

thrombin
KM (Michaelis-Menten, digestion followed by reverse phase HPLC): KM 200 nM
kcat/KM (Michaelis-Menten, digestion followed by reverse phase HPLC): kcat/KM=8 µM^-1 sec^-1
